In this assay the target is Recombinant human integrin αvβ5 (human) (UniProt P06756).
UniProt P06756, sequence (P06756 31-1048, chain 1 of 2): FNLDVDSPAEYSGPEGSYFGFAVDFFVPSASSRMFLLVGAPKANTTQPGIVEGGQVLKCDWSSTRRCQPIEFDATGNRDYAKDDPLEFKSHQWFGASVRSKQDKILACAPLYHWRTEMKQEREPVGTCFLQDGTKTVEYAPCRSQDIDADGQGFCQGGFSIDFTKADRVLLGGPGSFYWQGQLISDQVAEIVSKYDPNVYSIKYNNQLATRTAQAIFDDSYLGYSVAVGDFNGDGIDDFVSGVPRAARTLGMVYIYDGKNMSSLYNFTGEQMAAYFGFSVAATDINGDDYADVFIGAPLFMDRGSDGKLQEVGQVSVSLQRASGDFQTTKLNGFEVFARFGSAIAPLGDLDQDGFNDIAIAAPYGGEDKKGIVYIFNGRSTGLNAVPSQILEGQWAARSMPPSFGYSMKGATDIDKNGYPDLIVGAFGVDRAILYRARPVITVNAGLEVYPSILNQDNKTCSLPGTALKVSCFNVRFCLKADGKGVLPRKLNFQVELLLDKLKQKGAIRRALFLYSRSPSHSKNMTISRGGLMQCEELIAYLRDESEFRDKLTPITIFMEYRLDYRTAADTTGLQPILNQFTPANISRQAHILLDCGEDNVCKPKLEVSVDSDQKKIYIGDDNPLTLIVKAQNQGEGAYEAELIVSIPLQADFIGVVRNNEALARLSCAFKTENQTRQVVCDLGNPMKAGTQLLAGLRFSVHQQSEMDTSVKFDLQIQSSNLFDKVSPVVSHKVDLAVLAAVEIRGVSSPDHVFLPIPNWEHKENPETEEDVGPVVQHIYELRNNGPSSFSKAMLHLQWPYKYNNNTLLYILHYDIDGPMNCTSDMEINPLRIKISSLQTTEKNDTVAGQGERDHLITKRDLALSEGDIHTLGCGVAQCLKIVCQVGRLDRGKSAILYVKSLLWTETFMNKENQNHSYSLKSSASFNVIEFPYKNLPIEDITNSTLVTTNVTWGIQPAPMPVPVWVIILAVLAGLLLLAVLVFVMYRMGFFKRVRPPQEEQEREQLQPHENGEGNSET
UniProt P06756, sequence (P18084 24-719, chain 2 of 2, further chain): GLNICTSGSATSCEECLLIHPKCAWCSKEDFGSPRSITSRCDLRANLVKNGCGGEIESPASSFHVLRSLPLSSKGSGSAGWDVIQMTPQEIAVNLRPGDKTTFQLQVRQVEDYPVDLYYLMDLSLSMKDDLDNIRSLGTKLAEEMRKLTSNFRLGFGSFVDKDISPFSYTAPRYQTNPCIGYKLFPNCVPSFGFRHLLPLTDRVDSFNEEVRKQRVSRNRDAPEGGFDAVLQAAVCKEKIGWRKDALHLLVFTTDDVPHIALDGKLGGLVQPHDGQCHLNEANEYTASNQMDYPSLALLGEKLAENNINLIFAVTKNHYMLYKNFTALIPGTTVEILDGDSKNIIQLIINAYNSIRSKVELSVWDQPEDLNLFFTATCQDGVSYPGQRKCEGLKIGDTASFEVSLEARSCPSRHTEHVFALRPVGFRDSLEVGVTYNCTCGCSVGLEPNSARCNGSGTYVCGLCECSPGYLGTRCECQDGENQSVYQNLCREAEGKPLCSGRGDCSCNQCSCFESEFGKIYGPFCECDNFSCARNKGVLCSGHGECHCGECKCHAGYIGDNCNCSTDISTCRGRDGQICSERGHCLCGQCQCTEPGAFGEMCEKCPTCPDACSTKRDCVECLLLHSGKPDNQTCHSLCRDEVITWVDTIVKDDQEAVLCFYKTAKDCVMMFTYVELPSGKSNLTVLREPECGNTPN

On to “Recombinant human angiopoietin 2 (from UniProt O15123 19-496) (ligand)”, for which the Ang2-induced astrocyte apoptosis under high glucose (annexin-V/PI FACS, 48 h, percentage of apoptotic cells) with anti-integrin αvβ5 blocking antibody (10 μg/ml) came out at 19.3%.

The record behind these values is publication PMC5399183.
